{"source": "patent US20150307599A1", "about": "(GARVAN INSTITUTE OF MEDICAL RESEARCH, published 2015)", "key": {"NPY (mouse NPY, Phoenix)": {"target": "T1, NPY (mouse NPY, Phoenix) (mouse, C-terminal amide (-NH2))", "T1 construct": "36-residue whole peptide bought from Phoenix Peptides; also called mNPY; neuropeptide Y", "test": "BLI (Octet RED96), biotinylated MAb on SA sensors, peptide in solution", "protocol": "(§1) Affinity of MAb to peptides NPY, mPYY, hPYY, mPP and hPP were measured using an OCTET RED96 system with Octet SA sensors (ForteBio). Briefly, black 96-well plates were prepared with columns containing 200 μL/well of all reagents required for determination of affinity. In general, Octet SA sensors were first placed in wells containing Octet running buffer for 60 seconds to establish a baseline. Sensors were then transferred to wells containing 50 μg/mL biotinylated 5E12-B7 for 480 seconds to load the SA coated tips. Sensors were then regenerated by 3×5 second incubations in Regeneration Buffer (10 mM Glycine, pH 2) followed each time by a 5 second incubation in Octet running buffer. Sensors were then placed in fresh running buffer for 60 seconds to establish a baseline. Association was then measured by incubation the sensors for 10 min in 8 wells containing a serial dilution of peptide (0, 0.33 to 243 nM for NPY and PYY peptides, 0, 9 to 6560 nM for PP peptides). The sensors were then transferred to wells containing Octet running buffer for 15 min to measure dissociation of the peptides. The regeneration step was repeated before measurement of association/dissociation with a different peptide. All peptide measurements were performed in duplicate. The kd, kₐ and KD were determined for each peptide using the accompanying Octet software (Bioforte).\n(§2) Affinity parameters of MAb 5E12-B7 were measured against peptides NPY, mPYY, hPYY, mPP and hPP using an Octet Red system (ForteBio). Streptavadin sensors were loaded with biotinylated MAb 5E12-B7. Association and dissociation rates were measured by incubation of the sensors in wells containing serial dilutions of the peptides, followed by incubation in assay buffer."}, "human PYY (Phoenix)": {"target": "T2, human PYY (Phoenix) (human, C-terminal amide (-NH2))", "T2 construct": "36-residue whole peptide; also called hPYY", "T2 sequence (peptide, as listed by the source)": "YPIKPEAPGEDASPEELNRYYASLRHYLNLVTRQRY", "test": "BLI (Octet RED96), biotinylated MAb on SA sensors, peptide in solution", "protocol": "as §1, §2"}}, "data": [{"binder": "MAb 5E12-B7 (antibody, V domains shown, Biotinylated for the Biacore and Octet assays; also called PYY/NPY antibody (5E12); anti-NPY/PYY antibody 5E12) VH: QVQLQHPGTEVVKPGASVKLSCKASGYTFTNYWMHWVKQRPGQGLEWIGNIDPSNGGTNYNEKFKSKATLTVDKSSSTAYMQLSSLTSEDSAVYYCASFAYWGQGTLVTVSA VL: DIQMTQSPASLSASVGETVTITCRASGNIHNYLAWYQQKQGKSPQLLVYNAKTLADGVPSRFSGSGSGTQYSLKISSLRPEDFGSYYCQHFWSPPFTFGSGTKLEIK", "values": [{"measurement": "Kd", "setting": "NPY (mouse NPY, Phoenix)", "value": 4.7, "unit": "nM"}, {"measurement": "koff", "setting": "NPY (mouse NPY, Phoenix)", "value": 0.000429, "unit": "s⁻¹"}, {"measurement": "kon", "setting": "NPY (mouse NPY, Phoenix)", "value": 92600, "unit": "M⁻¹ s⁻¹"}, {"measurement": "Kd", "setting": "human PYY (Phoenix)", "value": 2.17, "unit": "nM"}, {"measurement": "koff", "setting": "human PYY (Phoenix)", "value": 0.000385, "unit": "s⁻¹"}, {"measurement": "kon", "setting": "human PYY (Phoenix)", "value": 179000, "unit": "M⁻¹ s⁻¹"}]}]}
